Reference: PMC10849647

Molecular target: pre-translocation ribosomal complex (without L27-tRNA labeling) (UniProt P0AG67)
Assay: co-sedimentation

| ratio of co-sedimented EF-G to ribosomal S1 protein | Substance |
| --- | --- |
| 0.15 EF-G per S1 | M5, the F410C-Y533C variant of a cysteineless E. coli EF-G (enzyme) |
| 0.22 EF-G per S1 | T48E mutant of M5 EF-G (enzyme) |
| 1 EF-G per S1 | T48V mutant of M5 EF-G (enzyme) |
